Experiment [1] has as its target T1, PVR conjugated to Histidine tag (PVR-HIS, Sino Cat. no. 10109-H08H) (Homo sapiens (Human), UniProt P15151 21-343).
T1 construct: Bought reagent; also called PVR-HIS tagged
T1 sequence: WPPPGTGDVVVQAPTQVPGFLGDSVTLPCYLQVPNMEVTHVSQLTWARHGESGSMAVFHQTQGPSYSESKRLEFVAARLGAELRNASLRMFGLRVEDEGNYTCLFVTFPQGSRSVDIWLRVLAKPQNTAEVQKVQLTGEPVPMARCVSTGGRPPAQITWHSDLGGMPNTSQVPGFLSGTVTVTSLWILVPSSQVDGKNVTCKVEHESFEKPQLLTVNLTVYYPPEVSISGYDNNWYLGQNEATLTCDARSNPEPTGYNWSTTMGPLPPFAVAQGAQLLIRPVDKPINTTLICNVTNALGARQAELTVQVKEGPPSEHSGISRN
Nature of the experiment: SPR (Biacore T200), antibody captured on Protein A chip, PVR-HIS as analyte, 1:1 binding. On the procedure:
(§1) Seven chimeric variants were generated by introducing a point mutation at residue asparagine N56. […] Binding was tested for the analyte PVR conjugated to Histidine tag (PVR-HIS, Sino Cat. no. 10109-H08H). Dilution range: Five point two-fold dilution from 50 nM to 3.125 nM. Conditions used: Instrument: Biacore T200 (serial no. 1909913) running Biacore T200 Evaluation Software V2.0.1. Running buffer: HBS-P+, 300 mM NaCl, 1 mg/ml BSA. Flow rate: […]. Association: 350 s, Dissociation: 800 s. Regeneration: 10 mM glycine pH 1.5. Analysis: 1:1 binding.
On the technique in general: In SPR one partner is held on a chip, and binding of the other changes the refractive index at the surface.

Experiment [2] has as its target T1, PVR conjugated to Histidine tag …. Kind of experiment: SPR (Biacore T200); KD divided by the KD of VH0/Vκ0 WT. The method, then:
FIGS. 1A-1B. Affinity and competition assays of N56 substitutions. FIG. 1A. […] Biacore assay showing relative and absolute affinity of the N56 substitutions (hIgG4 variants) to PVR-HIS tagged (Sino Cat. no. 10109-H08H). Affinity shift of >25% were considered significant.
as §1

Experiment [3] has as its target T2, chlorocebus (African green monkey) PVR expressed on Vero cells (chlorocebus (African green monkey), UniProt P32506 21-417).
T2 construct: whole, on cells; also called chlorocebus PVR
T2 sequence (looked up): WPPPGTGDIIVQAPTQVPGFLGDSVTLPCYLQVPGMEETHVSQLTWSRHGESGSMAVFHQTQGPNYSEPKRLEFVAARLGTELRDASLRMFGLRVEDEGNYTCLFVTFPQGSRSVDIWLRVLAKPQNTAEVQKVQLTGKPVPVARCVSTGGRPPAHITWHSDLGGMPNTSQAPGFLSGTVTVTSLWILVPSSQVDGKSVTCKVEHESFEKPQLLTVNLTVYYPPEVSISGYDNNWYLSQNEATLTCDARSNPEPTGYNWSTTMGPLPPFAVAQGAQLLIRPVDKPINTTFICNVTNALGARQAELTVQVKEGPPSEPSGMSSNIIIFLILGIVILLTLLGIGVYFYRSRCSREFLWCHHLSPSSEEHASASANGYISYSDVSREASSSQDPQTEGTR
Nature of the experiment: flow cytometry, 10 ug/ml antibody on Vero cells; MFI divided by the MFI of K0. On the procedure:
FIGS. 2A-2B. […] To assess maximal binding, saturating dose (10 ug/ml) of the N56 variant monoclonal antibodies (shown at the X axis) were used to stain PVR-expressing cells, and mean fluorescence intensity (MFI) values were determined by FACS analysis. […] (FIG. 2A) NCI-H1975 (human lung) cells and (FIG. 2B) Vero (African green monkey kidney) cells. Affinity shifts of >25% were considered significant.
The binding of the N56 substitution variant antibodies to cell bound PVR of human (protein id: Q92692) and chlorocebus (African green monkey, protein id: UniProtKB—P32506) was examined. FIG. 2A depicts the relative binding of all variants, which were added in saturating concentration (10 ug/ml), to NCI-H1975 cells expressing human PVR. FIG. 2B depicts the relative binding of all variants, which were added in saturating concentration (10 ug/ml), to Vero cells expressing chlorocebus PVR. […] Cell binding of the Abs was analyzed by FACS.

Experiment [4] addresses T3, human PVR (SPR of the humanized variants, Example 5) (human, UniProt P15151 21-343).
T3 sequence: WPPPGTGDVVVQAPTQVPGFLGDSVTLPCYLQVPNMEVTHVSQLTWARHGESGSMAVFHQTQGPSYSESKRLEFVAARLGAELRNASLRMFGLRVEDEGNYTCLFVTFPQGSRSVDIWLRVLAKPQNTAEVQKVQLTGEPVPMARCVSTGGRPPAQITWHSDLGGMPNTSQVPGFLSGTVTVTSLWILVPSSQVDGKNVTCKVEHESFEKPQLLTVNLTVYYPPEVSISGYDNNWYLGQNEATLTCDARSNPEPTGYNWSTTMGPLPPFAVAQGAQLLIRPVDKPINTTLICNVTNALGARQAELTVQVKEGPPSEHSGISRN
Kind of experiment: SPR.

Experiment [5] deals with human poliovirus receptor (PVR, CD155) expressed on cells (human) (UniProt P15151). Nature of the experiment: flow cytometry, binding to PVR-expressing HEK 293 cells.
The target of experiment [6] is T3, human PVR (SPR of the humanized …). Nature of the experiment: SPR; relative to N56E VH0/Vκ0.

B1: VH0/Vκ0 Thr56 (antibody, V domains shown)
VH: QVQLQQSGAELMKPGASVKISCKATGYTFSNYWIEWIKQRPGHGLEWIGEIFPGSGRINFNEKFKGKATFTADTSSDTTYMQLSSLTSADSAVYYCARTKIYGNSFDYWGQGTTLTVSP
VL: DIMMTQSHKFMSTSVGDRVNITCKASQDVGTAVVWYQQKPGQSPKLLIYWASSRHTGVPDRFTGSGSGTDFTLTISNVQSEDLSDYFCQQYSRYPLTFGAGTKLELK
notes: chimeric 5B9 N56 substitution variant; also called N56T
In experiment [1], B1 displayed an equilibrium dissociation constant (Kd) of 4.4 nM, a koff of 0.000688 s⁻¹ and a kon of 156000 M⁻¹ s⁻¹. The “Relative KD” value in experiment [2] was 0.86. For the same molecule, the “Fold change MFI” value in experiment [3] came out at 1.19.

B2: chimeric 5B9 N56E variant, IgG4(S241P) N56E_VH0/VK0 (antibody, name in Kabat numbering, V domains shown)
VH: QVQLQQSGAELMKPGASVKISCKATGYTFSNYWIEWIKQRPGHGLEWIGEIFPGSGRINFNEKFKGKATFTADTSSDTTYMQLSSLTSADSAVYYCARTKIYGNSFDYWGQGTTLTVSP
VL: DIMMTQSHKFMSTSVGDRVNITCKASQDVGTAVVWYQQKPGQSPKLLIYWASSRHEGVPDRFTGSGSGTDFTLTISNVQSEDLSDYFCQQYSRYPLTFGAGTKLELK
notes: Human IgG4 (S241P) constant region; also called chimeric N56E mutated parental antibody
With B2, in experiment [1], the dissociation constant (Kd) is 3.55 nM, the koff was 0.000653 s⁻¹ and the association rate constant (kon) was 184000 M⁻¹ s⁻¹. Besides, the “Relative KD” value in experiment [2] is 0.69. The Kd in experiment [4] was found to be 5.54 nM. Moreover, in experiment [5], the EC50 stood at 0.79 nM. The “Relative KD” value in experiment [6] was 1. In addition, the “Fold change MFI” value in experiment [3] was found to be 1.31.

B3: chimeric 5B9 N56D variant, IgG4 (S241P) (antibody, name in Kabat numbering, V domains shown)
VH: QVQLQQSGAELMKPGASVKISCKATGYTFSNYWIEWIKQRPGHGLEWIGEIFPGSGRINFNEKFKGKATFTADTSSDTTYMQLSSLTSADSAVYYCARTKIYGNSFDYWGQGTTLTVSP
VL: DIMMTQSHKFMSTSVGDRVNITCKASQDVGTAVVWYQQKPGQSPKLLIYWASSRHDGVPDRFTGSGSGTDFTLTISNVQSEDLSDYFCQQYSRYPLTFGAGTKLELK
notes: Human IgG4 (S241P) constant region
In experiment [1], B3 yielded a Kd of 3.27 nM, a koff of 0.000637 s⁻¹ and a kon of 195000 M⁻¹ s⁻¹. Besides, the “Relative KD” value in experiment [2] stood at 0.64. In addition, in experiment [3], the “Fold change MFI” value turned out to be 1.27.

The Kd is a measure of binding affinity in units of concentration. Higher therefore signals a looser complex. Broadly, the koff is a measure of how fast the partners let go of each other. A higher koff goes with fast dissociation. One may read the kon as the rate constant with which the complex forms. A higher kon goes with fast association. A word on the EC50: it is the concentration giving half of the maximal effect.

These data come from US20260152568A1 (NECTIN THERAPEUTICS, published 2026).
